Data from patent US20250388665A1 (ADAFRE BIOSCIENCES, published 2025).
Positions count from the first letter of the chain named.

Experiments:
human TNFα [1] = target: T1, human TNFα (human, UniProt P01375 77-233, biotinylated in the Example 2 assay (sites not given)); assay: ELISA: Fab titrated on immobilized human TNFα, 2 h dissociation at pH 7.4 with 100 nM soluble TNFα, A450
T1 construct: also called biotinylated human TNFα; soluble TNFα
Method: (§1) A 96-well Costar-3366 plate was coated with 50 μL/well of 1 μg/mL human TNFα (Genscript cat. #Z01001) in PBS for one hour at room temperature. The plate was rinsed twice with PBS-T and blocked with 100 μL/well of 1% BSA in PBS (B-PBS) for 1 h at 25° C. Fab samples were serially diluted 3-fold starting at 40 nM in B-PBS and were incubated for 1 h at 25° C. (50 μL/well). The plate was washed four times with PBS-T and 50 µL/well of 100 nM human TNFα in 1% BSA was added for 2 h at 25° C. The plate was washed four times with PBS-T and 50 μL/well of anti-human kappa, HRP conjugate (Southern Biotech, Prod. #2060-05) diluted 5,000-fold in B-PBS was added for 1 h at 25° C. The plate was washed three times with PBS-T, then developed with 50 μL/well 1-Step Ultra TMB-ELISA (ThermoFisher Scientific, Prod. #34028). The reaction was terminated by the addition of 2 N H₂SO₄ and the A450 was determined before and after addition of H₂SO₄, respectively, using a Spectramax plate reader.
(§2) The ELISA method used to characterize these variants was described in Example 3.

human TNFα [2] = target: T1, human TNFα; assay: ELISA: Fab titrated on immobilized human TNFα, 2 h dissociation at pH 6.0 with 100 nM soluble TNFα, A450
Method: as §1, §2

human TNFα [3] = target: T1, human TNFα; assay: ELISA: Fab titrated on immobilized human TNFα, 2 h dissociation at pH 7.4 with 100 nM soluble TNFα, A450 [cont.) C]
Method: as §1, §2

murine TNFα = target: T2, murine TNFα (murine, UniProt P06804 80-235, limits assumed, biotinylated (sites not given)); assay: ELISA: Fab captured via anti-human Fd, biotinylated murine TNFα titrated (x axis), prolonged dissociation at pH 7.4, A450
T2 construct: Bought reagent; also called biotinylated murine TNFα
T2 sequence (looked up): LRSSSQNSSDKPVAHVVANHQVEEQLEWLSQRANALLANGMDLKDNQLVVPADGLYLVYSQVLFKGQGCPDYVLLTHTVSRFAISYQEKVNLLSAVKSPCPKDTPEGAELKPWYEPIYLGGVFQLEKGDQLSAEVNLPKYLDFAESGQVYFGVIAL
Method: A 96-well Costar-3366 plate was coated with 50 μL/well of 2 μg/mL sheep anti-human Fd (Southern Biotech, Prod. #2046-01) in PBS for 1 hour at room temperature. The plate was washed four times with PBS containing 0.05% Tween 20 (PBS-T) and blocked with 100 μL/well of 1% BSA-PBS for 1 hour at room temperature. Block was removed and 50 μL/well of 0.5 ug/mL sample was added. Sample dilutions were performed with 1% BSA-PBS. The plate was washed four times with PBS containing 0.05% Tween 20 (PBS-T), then biotinylated murine (Acro biosystems) TNFα was serially diluted 3-fold starting at 30 nM in B-PBS and incubated for 1 h at 25° C. (50 μL/well). The plates were washed in 500 mL of PBS-T, pH 6.0 or PBS-T, pH 7.4 for 1 hour. PBS-T was removed from the plates every 10 minutes during this wash. The plates were then washed four times with PBS-T, and incubated with 50 μL/well of Neutravidin HRP (ThermoFisher Scientific, cat. #31030), diluted 2,000-fold in B-PBS for 1 h at 25° C. The plate was washed four times with PBS-T, then developed with 50 μL/well 1-Step Ultra TMB-ELISA (ThermoFisher Scientific, Prod. #34028). The reaction was terminated by the addition of 2 N H₂SO₄ and the A450 was determined before and after addition of H₂SO₄, respectively, using a Spectramax plate reader.

human TNFα [4] = target: T1, human TNFα; assay: ELISA: Fab titrated on immobilized human TNFα, 2 h dissociation at pH 7.4 with 100 nM soluble TNFα, A450; remark: listed apart in the source
Method: as §1

T1 sequence (P01375 77-233 limits assumed): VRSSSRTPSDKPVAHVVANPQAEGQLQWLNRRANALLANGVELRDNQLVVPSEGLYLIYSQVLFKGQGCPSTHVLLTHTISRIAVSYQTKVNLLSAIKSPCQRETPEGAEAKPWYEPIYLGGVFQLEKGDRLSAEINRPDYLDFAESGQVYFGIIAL

B1: A1 VL2 (Fab, V domains shown)
VH: not shown
VL: DIQMTQSPSSLSASVGDRVTITCRASQEIRNYLAWYQQKPGKAPKLLIYAASTLQSGVPSRFSGSGSGTDFTLTISSLQPEDVATYYCQHYHRAPYTFGQGTKVEIK
notes: Fab: VH/VL joined to human kappa constant domain and human G1 CH1
Human TNFα [1]
  EC50 (read off the curve): ~0.4 nM
Human TNFα [2]
  EC50 (read off the curve): ~0.7 nM

B2: A1 VL4 (Fab, V domains shown)
VH: not shown
VL: B1 VL with Q89H
notes: as for B1
Human TNFα [2]
  EC50 (read off the curve): ~1 nM

B3: A1 VL3 (Fab, V domains shown)
VH: not shown
VL: B1 VL with T97H
notes: as for B1
Human TNFα [2]
  EC50 (read off the curve): ~0.9 nM

B4: A1 VH2 (Fab, V domains shown)
VH: EVQLVESGGGLVQPGRSLRLSCAASGFTFDQYAMHWVRQAPGKGLEWVSAITWNSGHIDYADSVEGRFTISRDNAKNSLYLQMNSLRAEDTAVYYCAKVSYLPTAHHLDYWGQGTLVTVSS
VL: not shown
notes: as for B1
Human TNFα [1]
  binding result: binds

B5: A1 VL7 (Fab, V domains shown)
VH: not shown
VL: B1 VL with Y32H, H90R, H92N, R93H
notes: as for B1
Human TNFα [3]
  EC50 (read off the curve): ~1 nM
Murine TNFα
  binding result: binds

B6: A1 VH3 (Fab, V domains shown)
VH: B4 VH with S100H, L102H, H106S, H107S
VL: not shown
notes: as for B1
Human TNFα [1]
  EC50 (read off the curve): ~0.7 nM
Human TNFα [4]
  EC50 (read off the curve): ~2 nM
Murine TNFα
  binding result: binds

B7: AF-M2637 Fab (Fab, V domains shown)
VH: not shown
VL: B1 VL with E28G, Q89H
notes: pH switch variant of Ab1; Fab: VH/VL joined to human kappa constant domain and human G1 CH1; also called control AF-M2637
Human TNFα [1]
  EC50 (read off the curve): ~3 nM
Murine TNFα
  binding result: no binding (tested: log -7.5 M b-muTNF)

B8: Ab4 Fab (Fab, V domains shown)
VH: EVQLVESGGGLVQPGGSLRLSCAASGYVFTDYGMNWVRQAPGKGLEWMGWINTYIGEPIYADSVKGRFTFSLDTSKSTAYLQMNSLRAEDTAVYYCARGYRSYAMDYWGQGTLVTVSS
VL: DIQMTQSPSSLSASVGDRVTITCKASQNVGTNVAWYQQKPGKAPKALIYSASFLYSGVPYRFSGSGSGTDFTLTISSLQPEDFATYYCQQYNIYPLTFGQGTKVEIK
notes: as for B1
Murine TNFα
  binding result: no binding (tested: log -7.5 M b-muTNF)
